Measured values published in US12325866B2, “Systems and methods for growing cells in vitro” (Yissum Research Development Company of the Hebrew …, priority 2016, dated 2025).

Assays:
CSIF = experiment: Serum-free medium development: sulforhodamine B stain and protein content after 72 hours; assay type: cell-based, chicken; details: supplement added to minimal serum-free medium; bFGF 10 ng/ml, EGF 5 ng/ml, PGE2 0.01 μM, GH 10 ng/ml
Description: FIGS. 3A-F depict the development and identification of serum-free medium for CSIF propagation. Shown are sulforhodamine B stain (FIGS. 3A-E) and protein content quantification (FIG. 3F) following 72 hours of culture with 15% serum (“FBS”), minimal serum-free medium (MIN) alone (FIG. 3B) or with 10 ng/ml basic Fibroblast Growth Factor (bFGF, FIG. 3C), 5 ng/ml Epidermal Growth Factor (EGF, FIG. 3D), 0.01 μM Prostaglandin E2 (PGE2, FIG. 3E), or 10 ng/ml Growth Hormone. Serum-free medium (SFM) contained MIN medium supplemented with bFGF (10 ng/ml), EGF (5 ng/ml), and PGE2 ([…]).
(§1) To develop a serum-free medium that supports the culture of CEF and CS IF, the present inventor formulated a minimal medium composed of DMEM/F12 supplemented with 0.1 μM dexamethasone, 10 μg/ml insulin, 5.5 μg/ml transferrin, and 5 ng/ml selenium (ITS), 12 μM linoleic and 12 μM oleic acids, and 2 mM of L-Analyl-L-Glutamine. Cells were plated in FBS containing medium, and transferred to minimal medium after overnight attachment. Basal medium was supplemented with growth factors and hormones showing that while heparin and T3 had little effect of CSIF growth (data not shown), the addition of basic Fibroblast Growth Factor (bFGF, 10 ng/ml) was essential (FIGS. 3C and 3F), showing 20±2 hours doubling time (data not shown).

[1] = tested on: primary chicken embryonic fibroblasts (CEF); experiment: Proliferation of primary CEF in serum-free media / with supplements; assay type: cell-based; details: serum-free medium, or minimal medium plus supplement (EGF 5 ng/ml, PGE2 0.01 μM, GH 10 ng/ml)
Description: as §1, with “The CSIFs readily grow on tissue culture plastic in DMEM/F12 medium supplemented with 15% FBS, and 2 mM of […] (FIG. 2D). There are several serum-free medium formulations for the growth of human and mouse fibroblasts, including PCS-201-040 (ATCC) and […] To” for “To”, “[…].” for “L-Analyl-L-Glutamine.”

B1: EGF: epidermal growth factor (protein, UniProt P01133 23-1207, looked up)
Pro-epidermal growth factor: PQHWSCPEGTLAGNGNSTCVGPAPFLIFSHGNSIFRIDTEGTNYEQLVVDAGVSVIMDFHYNEKRIYWVDLERQLLQRVFLNGSRQERVCNIEKNVSGMAINWINEEVIWSNQQEGIITVTDMKGNNSHILLSALKYPANVAVDPVERFIFWSSEVAGSLYRADLDGVGVKALLETSEKITAVSLDVLDKRLFWIQYNREGSNSLICSCDYDGGSVHISKHPTQHNLFAMSLFGDRIFYSTWKMKTIWIANKHTGKDMVRINLHSSFVPLGELKVVHPLAQPKAEDDTWEPEQKLCKLRKGNCSSTVCGQDLQSHLCMCAEGYALSRDRKYCEDVNECAFWNHGCTLGCKNTPGSYYCTCPVGFVLLPDGKRCHQLVSCPRNVSECSHDCVLTSEGPLCFCPEGSVLERDGKTCSGCSSPDNGGCSQLCVPLSPVSWECDCFPGYDLQLDEKSCAASGPQPFLLFANSQDIRHMHFDGTDYGTLLSQQMGMVYALDHDPVENKIYFAHTALKWIERANMDGSQRERLIEEGVDVPEGLAVDWIGRRFYWTDRGKSLIGRSDLNGKRSKIITKENISQPRGIAVHPMAKRLFWTDTGINPRIESSSLQGLGRLVIASSDLIWPSGITIDFLTDKLYWCDAKQSVIEMANLDGSKRRRLTQNDVGHPFAVAVFEDYVWFSDWAMPSVMRVNKRTGKDRVRLQGSMLKPSSLVVVHPLAKPGADPCLYQNGGCEHICKKRLGTAWCSCREGFMKASDGKTCLALDGHQLLAGGEVDLKNQVTPLDILSKTRVSEDNITESQHMLVAEIMVSDQDDCAPVGCSMYARCISEGEDATCQCLKGFAGDGKLCSDIDECEMGVPVCPPASSKCINTEGGYVCRCSEGYQGDGIHCLDIDECQLGEHSCGENASCTNTEGGYTCMCAGRLSEPGLICPDSTPPPHLREDDHHYSVRNSDSECPLSHDGYCLHDGVCMYIEALDKYACNCVVGYIGERCQYRDLKWWELRHAGHGQQQKVIVVAVCVVVLVMLLLLSLWGAHYYRTQKLLSKNPKNPYEESSRDVRSRRPADTEDGMSSCPQPWFVVIKEHQDLKNGGQPVAGEDGQAADGSMQPTSWRQEPQLCGMGTEQGCWIPVSSDKGSCPQVMERSFHMPSYGTQTLEGGVEKPHSLLSANPLWQQRALDPPHQMELTQ
modifications: Pro-epidermal growth factor
Effect on CSIF growth / proliferation (CSIF): supported the proliferation
Proliferation of primary CEF [1]: supported the proliferation
